These results are taken from patent US20140087995A1 (published 2014).

Numbered stars: 1 amine (or outer) side, 2 acyl side, 3 side chain; on linkers, the order of the positions; unused ones are H or OH. Bridge positions count the residues as written; N and C are the ends. Side chains are listed from the residue outwards. Ends that are not written are not given here. * marks the point of attachment. C20 diacid = O=C(O)CCCCCCCCCCCCCCCCCCC(=O)*; C18 diacid = O=C(O)CCCCCCCCCCCCCCCCC(=O)*; C16 diacid = O=C(O)CCCCCCCCCCCCCCC(=O)*; γGlu = O=C(O)[C@H](CCC(=O)[*:2])N[*:1]; C14 diacid = O=C(O)CCCCCCCCCCCCC(=O)*

Sequences and labels used below:
T1: human calcitonin receptor (human, UniProt P30988 25-474)
T1 construct: whole, on cells; Membranes of BHK cells stably transfected with the human calcitonin receptor (Assay VII); also called hCTR; hCT
T1 sequence (looked up): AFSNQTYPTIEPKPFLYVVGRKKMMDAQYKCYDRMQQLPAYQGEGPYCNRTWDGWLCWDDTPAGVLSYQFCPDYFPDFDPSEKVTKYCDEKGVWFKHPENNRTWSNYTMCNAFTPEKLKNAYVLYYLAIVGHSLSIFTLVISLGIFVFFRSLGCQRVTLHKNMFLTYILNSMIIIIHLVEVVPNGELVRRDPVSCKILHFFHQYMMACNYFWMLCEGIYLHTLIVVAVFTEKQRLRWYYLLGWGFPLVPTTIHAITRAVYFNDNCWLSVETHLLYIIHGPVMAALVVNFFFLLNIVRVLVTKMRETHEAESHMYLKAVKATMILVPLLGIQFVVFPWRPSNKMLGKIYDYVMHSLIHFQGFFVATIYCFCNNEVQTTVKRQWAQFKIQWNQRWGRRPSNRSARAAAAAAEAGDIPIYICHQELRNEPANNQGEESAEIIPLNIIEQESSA

B1: N^ε1-[(4S)-4-carboxy-4-[[(4S)-4-carboxy-4-(19-carboxynonadecanoylamino)butanoyl]amino]butanoyl]-[Glu14,Arg17,Pro21,Pro27,Pro34,Glu35]-h-amylin (peptide)
peptide: K([γGlu-γGlu-C20 diacid])CNTATCATQRLAEFLRHSSPNFGAIPSSTNVGPETY-NH2
modifications: disulfide 2-7; N-terminus assumed
SMILES: CC[C@H](C)[C@H](NC(=O)[C@H](C)NC(=O)CNC(=O)[C@H](Cc1ccccc1)NC(=O)[C@H](CC(N)=O)NC(=O)[C@@H]1CCCN1C(=O)[C@H](CO)NC(=O)[C@H](CO)NC(=O)[C@H](Cc1c[nH]cn1)NC(=O)[C@H](CCCNC(=N)N)NC(=O)[C@H](CC(C)C)NC(=O)[C@H](Cc1ccccc1)NC(=O)[C@H](CCC(=O)O)NC(=O)[C@H](C)NC(=O)[C@H](CC(C)C)NC(=O)[C@H](CCCNC(=N)N)NC(=O)[C@H](CCC(N)=O)NC(=O)[C@@H](NC(=O)[C@H](C)NC(=O)[C@@H]1CSSC[C@H](NC(=O)[C@@H](N)CCCCNC(=O)CC[C@H](NC(=O)CC[C@H](NC(=O)CCCCCCCCCCCCCCCCCCC(=O)O)C(=O)O)C(=O)O)C(=O)N[C@@H](CC(N)=O)C(=O)N[C@@H]([C@@H](C)O)C(=O)N[C@@H](C)C(=O)N[C@@H]([C@@H](C)O)C(=O)N1)[C@@H](C)O)C(=O)N1CCC[C@H]1C(=O)N[C@@H](CO)C(=O)N[C@@H](CO)C(=O)N[C@H](C(=O)N[C@@H](CC(N)=O)C(=O)N[C@H](C(=O)NCC(=O)N1CCC[C@H]1C(=O)N[C@@H](CCC(=O)O)C(=O)N[C@H](C(=O)N[C@@H](Cc1ccc(O)cc1)C(N)=O)[C@@H](C)O)C(C)C)[C@@H](C)O
B2: N^ε1-[(4S)-4-carboxy-4-(13-carboxytridecanoylamino)butanoyl]-[Arg17,Pro21,Pro27,His34]-h-amylin (peptide)
peptide: K([γGlu-C14 diacid])CNTATCATQRLANFLRHSSPNFGAIPSSTNVGHNTY-NH2
modifications: disulfide 2-7; N-terminus assumed
SMILES: CC[C@H](C)[C@H](NC(=O)[C@H](C)NC(=O)CNC(=O)[C@H](Cc1ccccc1)NC(=O)[C@H](CC(N)=O)NC(=O)[C@@H]1CCCN1C(=O)[C@H](CO)NC(=O)[C@H](CO)NC(=O)[C@H](Cc1c[nH]cn1)NC(=O)[C@H](CCCNC(=N)N)NC(=O)[C@H](CC(C)C)NC(=O)[C@H](Cc1ccccc1)NC(=O)[C@H](CC(N)=O)NC(=O)[C@H](C)NC(=O)[C@H](CC(C)C)NC(=O)[C@H](CCCNC(=N)N)NC(=O)[C@H](CCC(N)=O)NC(=O)[C@@H](NC(=O)[C@H](C)NC(=O)[C@@H]1CSSC[C@H](NC(=O)[C@@H](N)CCCCNC(=O)CC[C@H](NC(=O)CCCCCCCCCCCCC(=O)O)C(=O)O)C(=O)N[C@@H](CC(N)=O)C(=O)N[C@@H]([C@@H](C)O)C(=O)N[C@@H](C)C(=O)N[C@@H]([C@@H](C)O)C(=O)N1)[C@@H](C)O)C(=O)N1CCC[C@H]1C(=O)N[C@@H](CO)C(=O)N[C@@H](CO)C(=O)N[C@H](C(=O)N[C@@H](CC(N)=O)C(=O)N[C@H](C(=O)NCC(=O)N[C@@H](Cc1c[nH]cn1)C(=O)N[C@@H](CC(N)=O)C(=O)N[C@H](C(=O)N[C@@H](Cc1ccc(O)cc1)C(N)=O)[C@@H](C)O)C(C)C)[C@@H](C)O
B3: N^ε1-[(4S)-4-carboxy-4-(17-carboxyheptadecanoylamino)butanoyl]-[Arg17,Pro21,Pro27,His34]-h-amylin (peptide)
peptide: K([γGlu-C18 diacid])CNTATCATQRLANFLRHSSPNFGAIPSSTNVGHNTY-NH2
modifications: disulfide 2-7; N-terminus assumed
SMILES: CC[C@H](C)[C@H](NC(=O)[C@H](C)NC(=O)CNC(=O)[C@H](Cc1ccccc1)NC(=O)[C@H](CC(N)=O)NC(=O)[C@@H]1CCCN1C(=O)[C@H](CO)NC(=O)[C@H](CO)NC(=O)[C@H](Cc1c[nH]cn1)NC(=O)[C@H](CCCNC(=N)N)NC(=O)[C@H](CC(C)C)NC(=O)[C@H](Cc1ccccc1)NC(=O)[C@H](CC(N)=O)NC(=O)[C@H](C)NC(=O)[C@H](CC(C)C)NC(=O)[C@H](CCCNC(=N)N)NC(=O)[C@H](CCC(N)=O)NC(=O)[C@@H](NC(=O)[C@H](C)NC(=O)[C@@H]1CSSC[C@H](NC(=O)[C@@H](N)CCCCNC(=O)CC[C@H](NC(=O)CCCCCCCCCCCCCCCCC(=O)O)C(=O)O)C(=O)N[C@@H](CC(N)=O)C(=O)N[C@@H]([C@@H](C)O)C(=O)N[C@@H](C)C(=O)N[C@@H]([C@@H](C)O)C(=O)N1)[C@@H](C)O)C(=O)N1CCC[C@H]1C(=O)N[C@@H](CO)C(=O)N[C@@H](CO)C(=O)N[C@H](C(=O)N[C@@H](CC(N)=O)C(=O)N[C@H](C(=O)NCC(=O)N[C@@H](Cc1c[nH]cn1)C(=O)N[C@@H](CC(N)=O)C(=O)N[C@H](C(=O)N[C@@H](Cc1ccc(O)cc1)C(N)=O)[C@@H](C)O)C(C)C)[C@@H](C)O
B4: N^ε1-[(4S)-4-carboxy-4-(15-carboxypentadecanoylamino)butanoyl]-[Arg17,Pro21,Pro27,His34]-h-amylin (peptide)
peptide: K([γGlu-C16 diacid])CNTATCATQRLANFLRHSSPNFGAIPSSTNVGHNTY-NH2
modifications: disulfide 2-7; N-terminus assumed
SMILES: CC[C@H](C)[C@H](NC(=O)[C@H](C)NC(=O)CNC(=O)[C@H](Cc1ccccc1)NC(=O)[C@H](CC(N)=O)NC(=O)[C@@H]1CCCN1C(=O)[C@H](CO)NC(=O)[C@H](CO)NC(=O)[C@H](Cc1c[nH]cn1)NC(=O)[C@H](CCCNC(=N)N)NC(=O)[C@H](CC(C)C)NC(=O)[C@H](Cc1ccccc1)NC(=O)[C@H](CC(N)=O)NC(=O)[C@H](C)NC(=O)[C@H](CC(C)C)NC(=O)[C@H](CCCNC(=N)N)NC(=O)[C@H](CCC(N)=O)NC(=O)[C@@H](NC(=O)[C@H](C)NC(=O)[C@@H]1CSSC[C@H](NC(=O)[C@@H](N)CCCCNC(=O)CC[C@H](NC(=O)CCCCCCCCCCCCCCC(=O)O)C(=O)O)C(=O)N[C@@H](CC(N)=O)C(=O)N[C@@H]([C@@H](C)O)C(=O)N[C@@H](C)C(=O)N[C@@H]([C@@H](C)O)C(=O)N1)[C@@H](C)O)C(=O)N1CCC[C@H]1C(=O)N[C@@H](CO)C(=O)N[C@@H](CO)C(=O)N[C@H](C(=O)N[C@@H](CC(N)=O)C(=O)N[C@H](C(=O)NCC(=O)N[C@@H](Cc1c[nH]cn1)C(=O)N[C@@H](CC(N)=O)C(=O)N[C@H](C(=O)N[C@@H](Cc1ccc(O)cc1)C(N)=O)[C@@H](C)O)C(C)C)[C@@H](C)O

The target of the first test is T1, human calcitonin receptor. Put plainly: SPA competition against 125I-calcitonin, membranes of BHK cells with human calcitonin receptor (Assay VII). Here is the method: Membranes were prepared in the following way; the cells were rinsed with PBS and incubated with Versene for approximately 5 min before harvesting. The cells were flushed with PBS and the cell-suspension was centrifuged for 5 min at 1000 rpm. Cells were homogenized (Ultrathurrax) in a buffer containing 20 mM Na-HEPES and 10 mM EDTA (pH 7.4) and centrifuged at 20.000 rpm for 15 min. The resulting pellet was resuspended, homogenized and centrifuged (20.000 rpm, 15 min) in a buffer containing 20 mM Na-HEPES and 0.1 mM EDTA (pH 7.4, buffer 2). The resulting pellet was resuspended in buffer 2 and protein concentration was measured (BCA protein Assay, Pierce). The homogenate was kept cold during the whole procedure. The membranes were kept at −80° C. until use. Assay was performed in a 384 well Optiplate (PerkinElmer) in a total volume of 40 ul. Membranes were mixed with SPA beads. Final concentration of membranes 35 ng/μL final and Final concentration of SPA beads was 0.05 mg/well. Test-compounds were dissolved in DMSO and further diluted in assay buffer (50 mM Hepes, pH 7.4, 1 mM CaCl2, 5 mM MgCl₂, 0.1% OA and 0.02% Tween20). […] The final mixture was incubated for 120 min with shaking at 400 rpm at 25° C. prior to centrifugation (1500 rpm, 10 min). Samples were analyzed on TopCounter™ (Packard). The […] was calculated using (one site binding competition analysis) GraphPad Prism5 as a measure of receptor affinity.
Turning to B1, the half-inhibitory concentration (IC50) (usually the concentration at which inhibition is half-maximal) is 2.13 nM.

As to B2, the IC50 is 24.3 nM.

With B3, the concentration for half-maximal inhibition (IC50) amounted to 22.7 nM.

For B4, the IC50 was found to be 10.8 nM.

The target in a further test is T1, human calcitonin receptor. As to the kind of experiment: ratio of IC50 at hCTR over IC50 at hAmylin-R (SPA competition assays). Here is the method:
The resulting pellet was resuspended, homogenized and centrifuged (20.000 rpm, 15 min) in a buffer containing 20 mM Na-HEPES and 0.1 mM EDTA (pH 7.4, buffer 2). The resulting pellet was resuspended in buffer 2 and protein concentration was measured (BCA protein Assay, Pierce). The homogenate was kept cold during the whole procedure. The membranes were kept at −80° C. until use. The assay was performed in a 384 well Optiplate (PerkinElmer) in a total volume of 40 ul. Membranes were mixed with SPA beads. Final concentration of membranes 35 ng/μL final and SPA beads was 0.05 mg/well. Test-compounds were dissolved in DMSO and further diluted in assay buffer (50 mM Hepes, pH 7.4, 1 mM CaCl2, 5 mM MgCl₂, 0.1% OA and 0.02% Tween20). […] The final mixture was incubated with shaking at 400 rpm for 120 min at 25° C. prior to centrifugation (1500 rpm, 10 min). Samples were analyzed on TopCounter™ (Packard). The IC₅₀ was calculated using (one site binding competition analysis) GraphPad Prism5 as a measure of receptor affinity.
Membranes were prepared in the following way; the cells were rinsed with PBS and incubated with Versene for approximately 5 min before harvesting. The cells were flushed with PBS and the cell-suspension was centrifuged for 5 min at 1000 rpm. Cells were homogenized (Ultrathurrax) in a buffer containing 20 mM Na-HEPES and 10 mM EDTA (pH 7.4) and centrifuged at 20.000 rpm for 15 min. The resulting pellet was resuspended, homogenized and centrifuged (20.000 rpm, 15 min) in a buffer containing 20 mM Na-HEPES and 0.1 mM EDTA (pH 7.4, buffer 2). The resulting pellet was resuspended in buffer 2 and protein concentration was measured (BCA protein Assay, Pierce). The homogenate was kept cold during the whole procedure. The membranes were kept at −80° C. until use. Assay was performed in a 384 well Optiplate (PerkinElmer) in a total volume of 40 ul. Membranes were mixed with SPA beads.
As to B1, the “Ratio hCT/hAmylin binding” value was determined as 17.6.

On to B2, for which the “Ratio hCT/hAmylin binding” value amounted to 23.5.

Take B3: the “Ratio hCT/hAmylin binding” value stood at 59.4.

Take B4: the “Ratio hCT/hAmylin binding” value was 18.5.
